Consider 7 molecules from patent US20250243272A1 (GOOD T CELLS, published 2025).

The target of the experiment is T1, Lrig-1 protein expressed on the surfaces of L cells (human, UniProt Q96JA1 35-1093).
T1 construct: no signal peptide limits are stated; also called L cells that stably express Lrig-1
T1 sequence: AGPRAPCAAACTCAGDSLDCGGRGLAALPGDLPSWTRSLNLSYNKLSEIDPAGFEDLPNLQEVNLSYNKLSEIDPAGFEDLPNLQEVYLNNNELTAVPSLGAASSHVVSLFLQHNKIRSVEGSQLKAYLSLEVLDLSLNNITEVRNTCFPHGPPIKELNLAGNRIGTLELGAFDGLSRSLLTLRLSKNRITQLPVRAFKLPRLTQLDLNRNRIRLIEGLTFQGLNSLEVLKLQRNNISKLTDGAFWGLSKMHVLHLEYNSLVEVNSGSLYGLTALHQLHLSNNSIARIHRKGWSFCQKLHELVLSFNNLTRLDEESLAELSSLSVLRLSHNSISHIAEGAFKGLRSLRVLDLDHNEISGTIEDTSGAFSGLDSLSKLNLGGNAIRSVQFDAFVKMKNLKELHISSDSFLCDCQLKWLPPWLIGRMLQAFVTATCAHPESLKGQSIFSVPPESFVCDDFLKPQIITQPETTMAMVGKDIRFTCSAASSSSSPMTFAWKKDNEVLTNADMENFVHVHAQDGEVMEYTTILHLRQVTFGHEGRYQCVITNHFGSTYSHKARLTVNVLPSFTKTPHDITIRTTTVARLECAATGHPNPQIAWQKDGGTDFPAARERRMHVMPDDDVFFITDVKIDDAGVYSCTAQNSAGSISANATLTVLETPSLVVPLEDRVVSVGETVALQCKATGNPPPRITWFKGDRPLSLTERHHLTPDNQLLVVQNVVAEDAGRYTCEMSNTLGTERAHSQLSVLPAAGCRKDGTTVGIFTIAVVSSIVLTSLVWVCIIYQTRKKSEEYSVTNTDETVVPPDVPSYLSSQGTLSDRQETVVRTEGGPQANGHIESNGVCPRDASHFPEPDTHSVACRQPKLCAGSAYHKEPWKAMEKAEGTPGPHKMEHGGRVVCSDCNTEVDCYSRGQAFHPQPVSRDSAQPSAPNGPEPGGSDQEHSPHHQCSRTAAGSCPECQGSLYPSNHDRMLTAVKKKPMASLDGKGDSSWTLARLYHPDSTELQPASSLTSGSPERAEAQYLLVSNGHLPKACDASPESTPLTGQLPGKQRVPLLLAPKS
The experiment can be described thus: FACS on L cells stably expressing Lrig-1, eFlour 670-conjugated anti-mouse secondary antibody. As for the experimental part:
In order to examine whether the monoclonal antibodies according to the present invention, produced in Production Examples 1 to 8, well recognize Lrig-1, each of the antibodies of Production Examples 1 to 8 was bound to L cells that stably express Lrig-1, and then an eFlour 670-conjugated secondary antibody capable of recognizing mouse antibodies was added thereto. Next, the binding affinities of the monoclonal antibodies for the Lrig-1 protein were analyzed using FACS.

B1: GTC210-01 clone (Production Example 1) (antibody, mouse IgG2a, V domains shown)
VH: EVQLLESGGGLVQPGGSLRLSCAASGFTFSGYDMSWVRQAPGKGLEWVSLIYPDSGNKYYADSVKGRFTISRDNSKNTLYLQMNSLRAEDTAVYYCARDAGLSWAGAFDYWGQGTLVTVSS
VL: QSVLTQPPSASGTPGQRVTISCSGSSSNIGSNYVTWYQQLPGTAPKLLIYSDSHRPSGVPDRFSGSKSGTSASLAISGLQSEDEADYYCGSWDYSLSAYVFGGGTKLTVLR
notes: the printed full chains carry mouse constant regions
Regarding B1, the binding result was “binds”.

B2: GTC110-03 clone (Production Example 7) (antibody, mouse IgG2a, V domains shown)
VH: EVQLLESGGGLVQPGGSLRLSCAASGFTFSNYAMSWVRQAPGKGLEWVSAIYPGGGSIYYADSVKGRFTISRDNSKNTLYLQMNSLRAEDTAVYYCARDILPCPWGRCYYDYAMDVWGQGTLVTVSS
VL: QSVLTQPPSASGTPGQRVTISCSDSSSNIGSNTVSWYQQLPGTAPKLLIYADNNRPSGVPDRFSGSKSGTSASLAISGLRSEDEADYYCGTWDYSLSGYVFGGGTKLTVLR
With B2, the binding result is on record as “binds”.

B3: GTC210-02 clone (Production Example 2) (antibody, mouse IgG2a, V domains shown)
VH: EVQLLESGGGLVQPGGSLRLSCAASGFTFSNYYMSWVRQAPGKGLEWVSGISPGDSSTYYADSVKGRFTISRDNSKNTLYLQMNSLRAEDTAVYYCAKGLYSNPNEPFDYWGQGTLVTVSS
VL: QSVLTQPPSASGTPGQRVTISCTGSSSNIGSNYVSWYQQLPGTAPKLLIYDDSQRPSGVPDRFSGSKSGTSASLAISGLRSEDEADYYCGTWDYSLNGYVFGGGTKLTVLR
Turning to B3, the binding result is listed as “binds”.

B4: GTC210-03 clone (Production Example 3) (antibody, mouse IgG2a, V domains shown)
VH: EVQLLESGGGLVQPGGSLRLSCAASGFTFSSYDMSWVRQAPGKGLEWVSGISPDGSNIYYADSVKGRFTISRDNSKNTLYLQMNSLRAEDTAVYYCAKVGLRCRYEACSYAYGMDVWGQGTLVTVSS
VL: QSVLTQPPSASGTPGQRVTISCSGSSSNIGSNYVSWYQQLPGTAPKLLIYSDSHRPSGVPDRFSGSKSGTSASLAISGLRSEDEADYYCATWDSSLNGYVFGGGTKLTVLR
Turning to B4, the binding result was “binds”.

B5: GTC110-04 clone (Production Example 8) (antibody, mouse IgG2a, V domains shown)
VH: EVQLLESGGGLVQPGGSLRLSCAASGFTFSNYAMSWVRQAPGKGLEWVSVISHGGGSTYYADSVKGRFTISRDNSKNTLYLQMNSLRAEDTAVYYCARVISNCHLGVCYYSNGMDVWGQGTLVTVSS
VL: QSVLTQPPSASGTPGQRVTISCSGSSSNIGNNDVYWYQQLPGTAPKLLIYSDSQRPSGVPDRFSGSKSGTSASLAISGLRSEDEADYYCGTWDYSLSGYVFGGGTKLTVLR
notes: also called GTC110-04 antibody; GTTC110-04 antibody
Take B5: the binding result is recorded as “binds”.

B6: GTC 210-04 clone (Production Example 4) (antibody, mouse IgG2a, V domains shown)
VH: EVQLLESGGGLVQPGGSLRLSCAASGFTFSNYDMSWVRQAPGKGLEWVSSISPSSGSIYYADSVKGRFTISRDNSKNTLYLQMNSLRAEDTAVYYCAKDLDAFWRPSFDYWGQGTLVTVSS
VL: QSVLTQPPSASGTPGQRVTISCTGSSSNIGNNNVNWYQQLPGTAPKLLIYSDSHRPSGVPDRFSGSKSGTSASLAISGLRSEDEADYYCGSWDDSLSAYVFGGGTKLTVLR
notes: The printed heavy variable region is the same as that of GTC110-01
Take B6: the binding result is given as “binds”.

B7: GTC110-02 clone (Production Example 6) (antibody, mouse IgG2a, V domains shown)
VH: EVQLLESGGGLVQPGGSLRLSCAASGFTFSDYYMSWVRQAPGKGLEWVSGISHDSGSKYYADSVKGRFTISRDNSKNTLYLQMNSLRAEDTAVYYCARHWTTFDYWGQGTLVTVSS
VL: QSVLTQPPSASGTPGQRVTISCSGSSSNIGSNNVTWYQQLPGTAPKLLIYANSNRPSGVPDRFSGSKSGTSASLAISGLRSEDEADYYCGAWDYSLSAYVFGGGTKLTVLR
As to B7, the binding result was “binds”.
